Residue numbers refer to the chain shown, from its start. Numbers in names are those of the source.
B1: CpArap27 (Cpin_5740 gene product) (Chitinophaga pinensis DSM 2588) (protein)
chain: AQQKKDFHSWAPTPPMGWNSWDCYGPTVTEAEVKANADYMASHLKSSGWQYIIVDIRWYVANDKSHGYNETDPAYNIDAYGRFQPAVNRFPSAANGKGFKPLADYIHSKGLKFGIHIMRGVPVVAVNKKLPVKGTNVTAADIYSKQDQCKWLHDMYTIVPDKTGAQEYYNSLFDMYAAWGLDFVKVDDLSAPIYFTEEIEMIRKAITRTGRKILLSTSPGETPIAQGAHVQQHANMWRTVDDFWDNWPHLKDHFEVFDRWNKWRTTGAWPDGDMLPLGHIGIRAERGQPRMTSFTKDEQYTLMTLWTIFRSPLMFGGNLPDNDPFTLSLLTNKQVLQVLNNSSNNRPVFNDKDKAAWTADMPGKSAKYLAVFNKADKDAAAVNVDLSEIGIKGSCTITDLWTGKVLGKFTGSFAPQINPHGAGLYKVTP
notes: ~48 kDa; monomer by SEC
B2: CpArap27 (Cpin_5740 gene product) (Chitinophaga pinensis DSM 2588; I73D) (protein)
chain: B1 chain with I56D
notes: ~48 kDa; monomer by SEC
B3: CpArap27 (Cpin_5740 gene product) (Chitinophaga pinensis DSM 2588; I73E) (protein)
chain: B1 chain with I56E
notes: ~48 kDa; monomer by SEC
B4: CpArap27 (Cpin_5740 gene product) (Chitinophaga pinensis DSM 2588; I73C) (protein)
chain: B1 chain with I56C
notes: ~48 kDa; monomer by SEC

Assays:
[1] = substrate: O=[N+]([O-])c1ccc(O[C@H]2OC[C@H](O)[C@H](O)[C@H]2O)cc1; experiment: continuous pNP release, spectrophotometer; assay type: biochemical, Chitinophaga pinensis; settings: 50 mM sodium citrate pH 5.0, 30 °C
From the text: (§1) continuous pNP release, spectrophotometer on CpArap27 (Cpin_5740 gene product)

[2] = substrate: O=[N+]([O-])c1ccc(O[C@H]2O[C@H](CO)[C@H](O)[C@H](O)[C@H]2O)cc1; experiment: continuous pNP release, spectrophotometer; assay type: biochemical, Chitinophaga pinensis; settings: 50 mM sodium citrate pH 5.0, 30 °C
From the text: as §1

Row | Protein | Km [1] [mM] | kcat [1] [s⁻¹] | kcat/Km [1] [M⁻¹ s⁻¹] | Km [2] [mM] | kcat/Km [2] [M⁻¹ s⁻¹] | kcat [2] [s⁻¹]
1 | B1 | 12.9 ± 3.27 | 32.3 ± 3.58 | 2500 |  |  | 
2 | B2 | 8.63 ± 2.14 | 0.00718 ± 0.000775 | 0.832 | 35.3 ± 11.9 | 0.00585 | 
3 | B3 | 6.56 ± 3.39 | 0.528 ± 0.115 | 80.5 | 35.6 ± 15.2 | 2.95 | 0.105 ± 0.0518
4 | B4 | 21.5 ± 10.4 | 0.403 ± 0.119 | 18.8 |  |  | 
